US20140161821A1, “TREATMENT WITH ANTI-PCSK9 ANTIBODIES” (PFIZER INC., priority 2011, published 2014)

How the values were obtained:
PCSK9 [1] = biological target: T1, PCSK9 (Homo sapiens, UniProt Q8NBP7); assay: Example 2 clinical study, single escalating IV doses: fasting lipids; format: in vivo
T1 construct: PCSK9 antagonist antibody that antagonizes circulating PCSK9; endogenous in cells; host or cells: human subjects in clinical trials (in vivo, circulating PCSK9)
Protocol: The study entailed a randomized, placebo-controlled, ascending, single dose study of L1L3. The subjects, investigator, and site personnel (except site personnel responsible for drug preparation) were blinded to treatment assignments, as was the CRO designee; while the Sponsor clinical research team was unblinded. The study was conducted in 6 planned cohorts of 8 subjects per cohort in an effort to seek a maximum tolerated dose or MTD (total of approximately 48 subjects). […] Doses were administered following an overnight fast as an intravenous infusion over 60 minutes. […] Infusions will be administered as a single infusion over 60 minutes.
Change in serum lipids (total cholesterol, LDL, HDL, Triglycerides, Non-HDL-C and Apoprotein B) were assessed.
Collection of fasting lipid profile was performed after at least a 10-hour fast (total cholesterol, LDL, HDL, Non-HDL Cholesterol, Apo B and triglycerides).

PCSK9 [2] = biological target: T1, PCSK9; assay: Example 3 clinical study, single IV dose on stable atorvastatin: fasting LDL-C; format: in vivo
Excerpt: Subjects who have hypertension and are controlled on stable dosages of anti-hypertensive medications could be included. The study included both genders, with a minimum age limit of 18 and a maximum age limit of 80.

T1 sequence (Q8NBP7 153-692): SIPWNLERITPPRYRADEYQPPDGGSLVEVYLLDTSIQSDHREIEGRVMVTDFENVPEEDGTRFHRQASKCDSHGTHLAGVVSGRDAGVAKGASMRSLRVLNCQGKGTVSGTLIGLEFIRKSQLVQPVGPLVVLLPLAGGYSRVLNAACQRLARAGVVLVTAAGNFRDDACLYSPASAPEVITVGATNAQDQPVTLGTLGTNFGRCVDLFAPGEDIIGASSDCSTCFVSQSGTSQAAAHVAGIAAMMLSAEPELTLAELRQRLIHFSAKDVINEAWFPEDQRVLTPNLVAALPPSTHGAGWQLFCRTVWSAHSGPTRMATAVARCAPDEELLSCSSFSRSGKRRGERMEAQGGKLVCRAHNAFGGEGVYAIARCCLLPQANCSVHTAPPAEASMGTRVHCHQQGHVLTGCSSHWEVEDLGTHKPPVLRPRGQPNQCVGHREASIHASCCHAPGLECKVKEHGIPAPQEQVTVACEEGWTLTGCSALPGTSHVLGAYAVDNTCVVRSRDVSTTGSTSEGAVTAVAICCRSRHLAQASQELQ
T1 sequence (Q8NBP7 31-152 partner limits assumed): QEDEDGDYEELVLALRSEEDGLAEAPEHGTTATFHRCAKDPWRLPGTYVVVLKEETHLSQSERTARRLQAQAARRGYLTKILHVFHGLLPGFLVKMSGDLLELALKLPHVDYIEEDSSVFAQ

B1: L1L3: humanized (<5% murine residues) monoclonal PCSK9 antagonist antibody that binds to secreted PCSK9; VH SEQ ID NO: 11, VL SEQ ID NO: 12 (antibody, V domains shown)
VH: QVQLVQSGAEVKKPGASVKVSCKASGYTFTSYYMHWVRQAPGQGLEWMGEISPFGGRTNYNEKFKSRVTMTRDTSTSTVYMELSSLRSEDTAVYYCARERPLYASDLWGQGTTVTVSS
VL: DIQMTQSPSSLSASVGDRVTITCRASQGISSALAWYQQKPGKAPKLLIYSASYRYTGVPSRFSGSGSGTDFTFTISSLQPEDIATYYCQQRYSLWRTFGQGTKLEIK
modifications: heavy chain variable region; light chain variable region
- mean percentage change from baseline of fasting LDL-C (PCSK9 [1]; single IV 3 mg/kg, visit day 22): −65.09%
- mean percentage change from baseline of fasting LDL-C (PCSK9 [1]; single IV 3 mg/kg, visit day 29): −64.77%
- mean percentage change from baseline of fasting LDL-C (PCSK9 [1]; single IV 3 mg/kg, visit day 43): −27.56%
- mean percentage change from baseline of fasting LDL-C (PCSK9 [1]; single IV 6 mg/kg, visit day 1): 0.000%
- mean percentage change from baseline of fasting LDL-C (PCSK9 [1]; single IV 6 mg/kg, visit day 2): −1.44%
- mean percentage change from baseline of fasting LDL-C (PCSK9 [1]; single IV 6 mg/kg, visit day 3): −9.23%
- mean percentage change from baseline of fasting LDL-C (PCSK9 [1]; single IV 6 mg/kg, visit day 4): −18.80%
- mean percentage change from baseline of fasting LDL-C (PCSK9 [1]; single IV 6 mg/kg, visit day 8): −43.77%
- mean percentage change from baseline of fasting LDL-C (PCSK9 [1]; single IV 6 mg/kg, visit day 15): −61.52%
- mean percentage change from baseline of fasting LDL-C (PCSK9 [1]; single IV 6 mg/kg, visit day 22): −68.92%
- mean percentage change from baseline of fasting LDL-C (PCSK9 [1]; single IV 6 mg/kg, visit day 29): −64.19%
- mean percentage change from baseline of fasting LDL-C (PCSK9 [1]; single IV 6 mg/kg, visit day 36): −67.70%
- mean percentage change from baseline of fasting LDL-C (PCSK9 [1]; single IV 6 mg/kg, visit day 43): −64.18%
- mean percentage change from baseline of fasting LDL-C (PCSK9 [1]; single IV 6 mg/kg, visit day 50): −49.17%
- mean percentage change from baseline of fasting LDL-C (PCSK9 [1]; single IV 6 mg/kg, visit day 57): −36.12%
- mean percentage change from baseline of fasting LDL-C (PCSK9 [1]; single IV 12 mg/kg, visit day 1): 0.000%
- mean percentage change from baseline of fasting LDL-C (PCSK9 [1]; single IV 12 mg/kg, visit day 2): −8.26%
- mean percentage change from baseline of fasting LDL-C (PCSK9 [1]; single IV 12 mg/kg, visit day 3): −14.05%
- mean percentage change from baseline of fasting LDL-C (PCSK9 [1]; single IV 12 mg/kg, visit day 4): −23.23%
- mean percentage change from baseline of fasting LDL-C (PCSK9 [1]; single IV 12 mg/kg, visit day 8): −37.96%
- mean percentage change from baseline of fasting LDL-C (PCSK9 [1]; single IV 12 mg/kg, visit day 15): −66.25%
- mean percentage change from baseline of fasting LDL-C (PCSK9 [1]; single IV 12 mg/kg, visit day 22): −59.79%
- mean percentage change from baseline of fasting LDL-C (PCSK9 [1]; single IV 12 mg/kg, visit day 29): −74.67%
- mean percentage change from baseline of fasting LDL-C (PCSK9 [1]; single IV 12 mg/kg, visit day 36): −65.23%
- mean percentage change from baseline of fasting LDL-C (PCSK9 [1]; single IV 12 mg/kg, visit day 43): −69.31%
- mean percentage change from baseline of fasting LDL-C (PCSK9 [1]; single IV 12 mg/kg, visit day 50): −56.08%
- mean percentage change from baseline of fasting LDL-C (PCSK9 [1]; single IV 12 mg/kg, visit day 57): −63.10%
- mean percentage change from baseline of fasting LDL-C (PCSK9 [1]; single IV 18 mg/kg, visit day 1): 0.000%
- mean percentage change from baseline of fasting LDL-C (PCSK9 [1]; single IV 18 mg/kg, visit day 2): −11.52%
- mean percentage change from baseline of fasting LDL-C (PCSK9 [1]; single IV 18 mg/kg, visit day 3): −22.43%
- mean percentage change from baseline of fasting LDL-C (PCSK9 [1]; single IV 18 mg/kg, visit day 4): −34.36%
- mean percentage change from baseline of fasting LDL-C (PCSK9 [1]; single IV 18 mg/kg, visit day 8): −43.70%
- mean percentage change from baseline of fasting LDL-C (PCSK9 [1]; single IV 18 mg/kg, visit day 15): −82.89%
- mean percentage change from baseline of fasting LDL-C (PCSK9 [1]; single IV 18 mg/kg, visit day 22): −72.97%
- mean percentage change from baseline of fasting LDL-C (PCSK9 [1]; single IV 18 mg/kg, visit day 29): −67.40%
- mean percentage change from baseline of fasting LDL-C (PCSK9 [1]; single IV 18 mg/kg, visit day 36): −61.47%
- mean percentage change from baseline of fasting LDL-C (PCSK9 [1]; single IV 18 mg/kg, visit day 43): −80.21%
- Fasting triglyceride (TGs) levels (PCSK9 [1]; single IV 0.3-18 mg/kg, baseline 173 mg/dL): remained unchanged
- High density lipoprotein cholesterol (HDL-C) levels (PCSK9 [1]; single IV 0.3-18 mg/kg, baseline about 49 mg/dL): did not change significantly
- mean percent change from baseline of fasting LDL-C (PCSK9 [2]; 0.5 mg/kg L1L3, atorvastatin 40 mg daily, Day 0): 0.0%
- mean percent change from baseline of fasting LDL-C (PCSK9 [2]; 0.5 mg/kg L1L3, atorvastatin 40 mg daily, Day 1): −28.8%
- mean percent change from baseline of fasting LDL-C (PCSK9 [2]; 0.5 mg/kg L1L3, atorvastatin 40 mg daily, Day 2): −48.5%
- mean percent change from baseline of fasting LDL-C (PCSK9 [2]; 0.5 mg/kg L1L3, atorvastatin 40 mg daily, Day 3): −66.7%
- mean percent change from baseline of fasting LDL-C (PCSK9 [2]; 0.5 mg/kg L1L3, atorvastatin 40 mg daily, Day 11): −34.4%
- mean percent change from baseline of fasting LDL-C (PCSK9 [2]; 0.5 mg/kg L1L3, atorvastatin 40 mg daily, Day 18): 9.0%
- mean percent change from baseline of fasting LDL-C (PCSK9 [2]; 0.5 mg/kg L1L3, atorvastatin 40 mg daily, Day 25): 23.3%
- mean percent change from baseline of fasting LDL-C (PCSK9 [2]; 0.5 mg/kg L1L3, atorvastatin 40 mg daily, Day 32): 14.8%
- mean percent change from baseline of fasting LDL-C (PCSK9 [2]; 0.5 mg/kg L1L3, atorvastatin 40 mg daily, Day 39): 21.2%
- mean percent change from baseline of fasting LDL-C (PCSK9 [2]; 0.5 mg/kg L1L3, atorvastatin 40 mg daily, Day 46): 17.0%
- mean percent change from baseline of fasting LDL-C (PCSK9 [2]; 0.5 mg/kg L1L3, atorvastatin 40 mg daily, Day 53): 27.9%
- mean percent change from baseline of fasting LDL-C (PCSK9 [2]; 0.5 mg/kg L1L3, atorvastatin 40 mg daily, Day 60): 30.1%
- Day on which the maximum LDL-C lowering effect was observed (PCSK9 [2]; 0.5 mg/kg L1L3, atorvastatin 40 mg, day following L1L3 administration): 3 days
- mean percent change from baseline of fasting LDL-C (PCSK9 [2]; 4 mg/kg L1L3, atorvastatin 40 mg daily, Day 0): 0.0%
- mean percent change from baseline of fasting LDL-C (PCSK9 [2]; 4 mg/kg L1L3, atorvastatin 40 mg daily, Day 1): −20.9%
- mean percent change from baseline of fasting LDL-C (PCSK9 [2]; 4 mg/kg L1L3, atorvastatin 40 mg daily, Day 2): −38.4%
- mean percent change from baseline of fasting LDL-C (PCSK9 [2]; 4 mg/kg L1L3, atorvastatin 40 mg daily, Day 3): −43.3%
- mean percent change from baseline of fasting LDL-C (PCSK9 [2]; 4 mg/kg L1L3, atorvastatin 40 mg daily, Day 11): −64.6%
- mean percent change from baseline of fasting LDL-C (PCSK9 [2]; 4 mg/kg L1L3, atorvastatin 40 mg daily, Day 18): −73.2%
- mean percent change from baseline of fasting LDL-C (PCSK9 [2]; 4 mg/kg L1L3, atorvastatin 40 mg daily, Day 25): −70.8%
- mean percent change from baseline of fasting LDL-C (PCSK9 [2]; 4 mg/kg L1L3, atorvastatin 40 mg daily, Day 32): −69.9%
- mean percent change from baseline of fasting LDL-C (PCSK9 [2]; 4 mg/kg L1L3, atorvastatin 40 mg daily, Day 39): −45.1%
- mean percent change from baseline of fasting LDL-C (PCSK9 [2]; 4 mg/kg L1L3, atorvastatin 40 mg daily, Day 46): −19.2%
- mean percent change from baseline of fasting LDL-C (PCSK9 [2]; 4 mg/kg L1L3, atorvastatin 40 mg daily, Day 53): −3.6%
- mean percent change from baseline of fasting LDL-C (PCSK9 [2]; 4 mg/kg L1L3, atorvastatin 40 mg daily, Day 60): 7.1%
- Day through which the maximum LDL-C lowering effect was observed (PCSK9 [2]; 4 mg/kg L1L3, atorvastatin 40 mg, day following L1L3 administration): 32 days
